Source: article PMC5615192 (mBio, 2017)
Numbering of substitutions follows the chain as printed. In names and notes the source's numbering stands.

T1: HPV59 L1 pentamer (human papillomavirus type 59)
T1 chain: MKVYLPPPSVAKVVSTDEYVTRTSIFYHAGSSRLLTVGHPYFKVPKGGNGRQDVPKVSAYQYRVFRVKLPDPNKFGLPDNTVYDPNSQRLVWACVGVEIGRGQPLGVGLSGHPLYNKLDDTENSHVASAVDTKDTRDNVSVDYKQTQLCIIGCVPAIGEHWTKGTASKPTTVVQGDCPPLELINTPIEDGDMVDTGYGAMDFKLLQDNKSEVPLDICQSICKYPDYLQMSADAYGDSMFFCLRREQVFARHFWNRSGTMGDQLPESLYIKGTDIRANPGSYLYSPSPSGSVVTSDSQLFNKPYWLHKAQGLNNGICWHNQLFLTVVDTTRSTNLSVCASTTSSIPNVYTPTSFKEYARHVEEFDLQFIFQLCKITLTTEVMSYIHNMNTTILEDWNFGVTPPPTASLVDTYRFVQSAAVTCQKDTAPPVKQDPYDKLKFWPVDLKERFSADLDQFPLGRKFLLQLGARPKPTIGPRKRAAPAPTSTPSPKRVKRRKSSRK

T2: HPV59 L1 VLP (human papillomavirus type 59)
T2 chain: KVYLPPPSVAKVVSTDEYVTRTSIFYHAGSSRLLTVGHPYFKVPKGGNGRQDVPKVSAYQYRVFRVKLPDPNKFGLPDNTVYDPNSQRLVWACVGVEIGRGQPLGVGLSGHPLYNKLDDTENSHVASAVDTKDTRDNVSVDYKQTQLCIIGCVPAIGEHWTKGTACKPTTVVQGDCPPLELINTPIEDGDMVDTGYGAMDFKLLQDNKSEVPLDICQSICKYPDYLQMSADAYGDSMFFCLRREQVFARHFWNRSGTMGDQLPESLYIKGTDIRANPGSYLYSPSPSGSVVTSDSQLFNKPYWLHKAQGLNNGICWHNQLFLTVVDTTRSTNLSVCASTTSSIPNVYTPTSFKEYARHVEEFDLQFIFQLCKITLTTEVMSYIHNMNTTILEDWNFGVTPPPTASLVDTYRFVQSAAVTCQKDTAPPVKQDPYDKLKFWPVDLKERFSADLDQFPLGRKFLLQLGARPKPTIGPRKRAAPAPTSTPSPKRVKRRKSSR

T3: HPV58 L1 pentamer (human papillomavirus type 58, UniProt P26535 34-524)
T3 chain: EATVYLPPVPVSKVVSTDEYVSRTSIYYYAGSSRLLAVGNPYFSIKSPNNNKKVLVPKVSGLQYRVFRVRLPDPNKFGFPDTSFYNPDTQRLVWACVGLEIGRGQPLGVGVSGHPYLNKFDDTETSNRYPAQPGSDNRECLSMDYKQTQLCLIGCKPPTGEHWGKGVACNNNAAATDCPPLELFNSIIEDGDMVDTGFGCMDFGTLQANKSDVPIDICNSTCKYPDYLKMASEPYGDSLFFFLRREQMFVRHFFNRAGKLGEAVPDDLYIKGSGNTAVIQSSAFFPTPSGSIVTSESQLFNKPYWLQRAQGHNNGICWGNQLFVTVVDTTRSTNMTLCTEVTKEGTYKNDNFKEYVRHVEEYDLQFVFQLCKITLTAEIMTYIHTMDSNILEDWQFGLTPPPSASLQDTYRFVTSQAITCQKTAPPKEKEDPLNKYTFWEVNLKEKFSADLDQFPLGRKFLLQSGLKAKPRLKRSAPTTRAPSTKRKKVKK

T4: HPV58 L1 VLP (human papillomavirus type 58, UniProt P26535 34-524)
T4 chain: T3 chain

T5: HPV58 L1 VLP D154A (human papillomavirus type 58) (UniProt P26535)
T5 sequence: T3 chain with D121A

T6: HPV58 L1 VLP N308A (human papillomavirus type 58) (UniProt P26535)
T6 sequence: T3 chain with N275A

T7: HPV58 L1 VLP R161A (human papillomavirus type 58) (UniProt P26535)
T7 sequence: T3 chain with R128A

B1: HPV58 L1 pentamer R161A (natural protein)
chain: T3 chain with R128A
B2: HPV58 L1 pentamer D154A (natural protein)
chain: T3 chain with D121A
B3: HPV58 L1 pentamer Q165A (natural protein)
chain: T3 chain with Q132A
B4: HPV58 L1 pentamer S168A (natural protein)
chain: T3 chain with S135A
B5: HPV58 L1 pentamer N170A (natural protein)
chain: T3 chain with N137A
B6: HPV58 L1 pentamer N308A (natural protein)
chain: T3 chain with N275A
B7: MAb 28F10 (antibody, V domains shown)
VH: DVKLVESGGGLVKPGGSLKLSCAASGFPFSDYTMSWIRQTPEKRLEWVASISSGGTYTYYPDTVKGRFTISRDNAKNTLYLQMSSLKSEDTAMFYCTRASPYYDYDEGYMDYWGQGTSVTVSS
VL: DVVMTQTPLSLPVSLGDQASISCRSSQSLVHSNGNTYLHWYLQKSGQSPKLLIYKVSNRFSGVPDRFSGSGSGTDFTLKISRVEAEDLGVYFCSQSTHVPFTFGAGTKLELK
B8: MAb A12A3 (antibody, V domains shown)
VH: EVQLQQSGAELVRPGALVKLSCKASGFNIKDYYMHWVKQRPEQGLEWIGWIDPENGKTIYDPRFRGKASITADTSSNTAYLQLSSLTSEDAAVYYCATSNYRYDRSFDYWGQGTTLTVSA
VL: DIQMTQSPSSLFASLGGKVTITCKASQDINKYIAWFQHKPGKGPRLLIHYTFTLQPGIPSRFSGSGSGRDYSFSISNLEPEDIATYYCLQYHNLYTFGGGTKLEIK
notes: also called A12A3 IgG

How the values were obtained:
MAb A12A3 (mouse) = experiment: SPR; Biacore 3000; MAb (10 ug/ml) captured on a CM-5 chip amine coupled with goat anti-mouse Fc fragment; serially diluted pentamer injected at 30 ul/min for 3.3 min; HBS (10 mM HEPES pH 7.4, 150 mM NaCl); three measurements, mean and standard deviation
[1] = molecular target: HPV18 TQG L1 VLP (triple mutant T270Q, Q273E, G281D) (human papillomavirus type 18)
HPV59 L1 pentamer = molecular target: T1, HPV59 L1 pentamer; experiment: ELISA
HPV59 L1 VLP = molecular target: T2, HPV59 L1 VLP; experiment: ELISA
[2] = molecular target: HPV59 L1 pentamer M267A (human papillomavirus type 59); experiment: ELISA; indirect ELISA; wells coated with wild-type or mutant VLPs or pentamers (300 ng/well, overnight at 4°C); 2-fold serial dilutions of the antibody, 1 h at 37°C; detected with HRP goat anti-mouse IgG
[3] = molecular target: HPV59 L1 pentamer Q270A (human papillomavirus type 59); experiment: as above
[4] = molecular target: HPV33 KAT L1 VLP (triple mutant K161R, A168S, T308N) (human papillomavirus type 33) (UniProt P06416)
HPV58 L1 pentamer [5] = molecular target: T3, HPV58 L1 pentamer; experiment: ELISA
HPV58 L1 VLP = molecular target: T4, HPV58 L1 VLP; experiment: ELISA
HPV58 L1 pentamer [6] = molecular target: T8, HPV58 L1 pentamer (Human papillomavirus type 58 (GenBank …, UniProt P26535)); experiment: SPR; Biacore 3000; MAb (10 ug/ml) […]; HBS (10 mM HEPES pH 7.4, 150 mM NaCl); […]; details: both partners purified
T8 construct: also called HPV58p; HPV58 pentamer; source: cloned into pTO-T7

[7] = molecular target: T5, HPV58 L1 VLP D154A (human papillomavirus type 58); experiment: ELISA; indirect ELISA; wells coated with wild-type or mutant VLPs or pentamers (300 ng/well, overnight at 4°C); 2-fold serial dilutions of the antibody, 1 h at 37°C; detected with HRP goat anti-mouse IgG
[8] = molecular target: T6, HPV58 L1 VLP N308A (human papillomavirus type 58); experiment: as above
[9] = molecular target: T7, HPV58 L1 VLP R161A (human papillomavirus type 58); experiment: as above

Binder	Ka (MAb A12A3 (mouse))	Kd (MAb A12A3 (mouse))	koff (MAb A12A3 (mouse))	kon (MAb A12A3 (mouse))	other results
B1	994000 M⁻¹	1120 nM	9.98e-06 s⁻¹	10.1 M⁻¹ s⁻¹	
B2	4.18e+06 M⁻¹	240 nM	0.102 s⁻¹	426000 M⁻¹ s⁻¹	
B3	7.28e+07 M⁻¹	13.8 nM	0.00228 s⁻¹	167000 M⁻¹ s⁻¹	
B4	1.62e+08 M⁻¹	6.28 nM	0.000522 s⁻¹	54300 M⁻¹ s⁻¹	
B5	1.53e+08 M⁻¹	6.52 nM	0.000644 s⁻¹	98400 M⁻¹ s⁻¹	
B6	8.99e+06 M⁻¹	112 nM	0.0272 s⁻¹	243000 M⁻¹ s⁻¹	
B7					IC50 of neutralisation of HPV18 TQG PsVs [1]: 0.0097 µg/mL; EC50 (HPV59 L1 pentamer): 0.0464 µg/mL; EC50 (HPV59 L1 VLP): 0.005 µg/mL; fold increase of the EC50 against the WT HPV59 pentamer [2]: 10 fold; fold increase of the EC50 against the WT HPV59 pentamer [3]: 20 fold
B8					IC50 of neutralisation of the HPV33 KAT PsV mutant [4]: 4.3 µg/mL; EC50 (HPV58 L1 pentamer [5]): 0.0085 µg/mL; EC50 (HPV58 L1 VLP): 0.0104 µg/mL; Ka (HPV58 L1 pentamer [6]): 1.91e+08 M⁻¹; Kd (HPV58 L1 pentamer [6]): 5.33 nM; koff (HPV58 L1 pentamer [6]): 0.0004 s⁻¹; kon (HPV58 L1 pentamer [6]): 78400 M⁻¹ s⁻¹; fold increase of the EC50 against the WT HPV58 VLP [7]: 2 fold; fold increase of the EC50 against the WT HPV58 VLP [8]: 2 fold; fold increase of the EC50 against the WT HPV58 VLP [9]: 80 fold
